Among the data in patent US12043670B2, “Anti-BCMA antibody-drug conjugates and methods of use” (Eisai R&D Management Co., Ltd., priority 2020, dated 2024) are Tm values, retold here.

The chains are these.
B1: AB200-R1H26-R2Vk18 (antibody)
heavy: QVQLVQSGAEVKKPGSSVKVSCKASGGSFSNYWMHWVRQAPGQGLEWMGATYRIHSDTFYNQKFKGRVTITADKSTSTAYMELSSLRSEDTAVYYCARGAIYHGYDVLDNWGQGTLVTVSSASTKGPSVFPLAPSSKSTSGGTAALGCLVKDYFPEPVTVSWNSGALTSGVHTFPAVLQSSGLYSLSSVVTVPSSSLGTQTYICNVNHKPSNTKVDKKVEPKSC
light: DIQMTQSPSSLSASVGDRVTITCRASQSISSYINWYQQKPGKAPKLLIYAASSLQSGVPSRFSGSGSGTDFTLTISSLQPEDFATYYCQQFRKIPWTFGQGTKLEIKRTVAAPSVFIFPPSDEQLKSGTASVVCLLNNFYPREAKVQWKVDNALQSGNSQESVTEQDSKDSTYSLSSTLTLSKADYEKHKVYACEVTHQGLSSPVTKSFNRGEC
B2: AB200-R1H26-R2Vk47 (antibody)
heavy: QVQLVQSGAEVKKPGSSVKVSCKASGGSFSNYWMHWVRQAPGQGLEWMGATYRIHSDTFYNQKFKGRVTITADKSTSTAYMELSSLRSEDTAVYYCARGAIYHGYDVLDNWGQGTLVTVSSASTKGPSVFPLAPSSKSTSGGTAALGCLVKDYFPEPVTVSWNSGALTSGVHTFPAVLQSSGLYSLSSVVTVPSSSLGTQTYICNVNHKPSNTKVDKKVEPKSC
light: DIQMTQSPSSLSASVGDRVTITCRASQSISSYINWYQQKPGKAPKLLIYATSNLQIGVPSRFSGSGSGTDFTLTISSLQPEDFATYYCQQYRKIPWSFGQGTKLEIKRTVAAPSVFIFPPSDEQLKSGTASVVCLLNNFYPREAKVQWKVDNALQSGNSQESVTEQDSKDSTYSLSSTLTLSKADYEKHKVYACEVTHQGLSSPVTKSFNRGEC
B3: AB200-R1H26-R2Vk40 (antibody)
heavy: QVQLVQSGAEVKKPGSSVKVSCKASGGSFSNYWMHWVRQAPGQGLEWMGATYRIHSDTFYNQKFKGRVTITADKSTSTAYMELSSLRSEDTAVYYCARGAIYHGYDVLDNWGQGTLVTVSSASTKGPSVFPLAPSSKSTSGGTAALGCLVKDYFPEPVTVSWNSGALTSGVHTFPAVLQSSGLYSLSSVVTVPSSSLGTQTYICNVNHKPSNTKVDKKVEPKSC
light: DIQMTQSPSSLSASVGDRVTITCRASQSISSYINWYQQKPGKAPKLLIYATSNIQSGVPSRFSGSGSGTDFTLTISSLQPEDFATYYCQQYRRIPWTFGQGTKLEIKRTVAAPSVFIFPPSDEQLKSGTASVVCLLNNFYPREAKVQWKVDNALQSGNSQESVTEQDSKDSTYSLSSTLTLSKADYEKHKVYACEVTHQGLSSPVTKSFNRGEC
B4: AB200-R1H26-R2Vk37 (antibody)
heavy: QVQLVQSGAEVKKPGSSVKVSCKASGGSFSNYWMHWVRQAPGQGLEWMGATYRIHSDTFYNQKFKGRVTITADKSTSTAYMELSSLRSEDTAVYYCARGAIYHGYDVLDNWGQGTLVTVSSASTKGPSVFPLAPSSKSTSGGTAALGCLVKDYFPEPVTVSWNSGALTSGVHTFPAVLQSSGLYSLSSVVTVPSSSLGTQTYICNVNHKPSNTKVDKKVEPKSC
light: DIQMTQSPSSLSASVGDRVTITCRASQSISSYINWYQQKPGKAPKLLIYATSNLQSGVPSRFSGSGSGTDFTLTISSLQPEDFATYYCQQYRKIPWSFGQGTKLEIKRTVAAPSVFIFPPSDEQLKSGTASVVCLLNNFYPREAKVQWKVDNALQSGNSQESVTEQDSKDSTYSLSSTLTLSKADYEKHKVYACEVTHQGLSSPVTKSFNRGEC
B5: AB200-R1H26-R2Vk28 (antibody)
heavy: QVQLVQSGAEVKKPGSSVKVSCKASGGSFSNYWMHWVRQAPGQGLEWMGATYRIHSDTFYNQKFKGRVTITADKSTSTAYMELSSLRSEDTAVYYCARGAIYHGYDVLDNWGQGTLVTVSSASTKGPSVFPLAPSSKSTSGGTAALGCLVKDYFPEPVTVSWNSGALTSGVHTFPAVLQSSGLYSLSSVVTVPSSSLGTQTYICNVNHKPSNTKVDKKVEPKSC
light: DIQMTQSPSSLSASVGDRVTITCRASQSISSYLNWYQQKPGKAPKLLIYATSNIQSGVPSRFSGSGSGTDFTLTISSLQPEDFATYYCQQFRKIPWTFGQGTKLEIKRTVAAPSVFIFPPSDEQLKSGTASVVCLLNNFYPREAKVQWKVDNALQSGNSQESVTEQDSKDSTYSLSSTLTLSKADYEKHKVYACEVTHQGLSSPVTKSFNRGEC
B6: AB200-R1H26-R2Vk39 (antibody)
heavy: QVQLVQSGAEVKKPGSSVKVSCKASGGSFSNYWMHWVRQAPGQGLEWMGATYRIHSDTFYNQKFKGRVTITADKSTSTAYMELSSLRSEDTAVYYCARGAIYHGYDVLDNWGQGTLVTVSSASTKGPSVFPLAPSSKSTSGGTAALGCLVKDYFPEPVTVSWNSGALTSGVHTFPAVLQSSGLYSLSSVVTVPSSSLGTQTYICNVNHKPSNTKVDKKVEPKSC
light: DIQMTQSPSSLSASVGDRVTITCRASQSISSYINWYQQKPGKAPKLLIYATSNIQSGVPSRFSGSGSGTDFTLTISSLQPEDFATYYCQQYRRLPWSFGQGTKLEIKRTVAAPSVFIFPPSDEQLKSGTASVVCLLNNFYPREAKVQWKVDNALQSGNSQESVTEQDSKDSTYSLSSTLTLSKADYEKHKVYACEVTHQGLSSPVTKSFNRGEC
B7: AB200-R1H26-R2Vk38 (antibody)
heavy: QVQLVQSGAEVKKPGSSVKVSCKASGGSFSNYWMHWVRQAPGQGLEWMGATYRIHSDTFYNQKFKGRVTITADKSTSTAYMELSSLRSEDTAVYYCARGAIYHGYDVLDNWGQGTLVTVSSASTKGPSVFPLAPSSKSTSGGTAALGCLVKDYFPEPVTVSWNSGALTSGVHTFPAVLQSSGLYSLSSVVTVPSSSLGTQTYICNVNHKPSNTKVDKKVEPKSC
light: DIQMTQSPSSLSASVGDRVTITCRASQSISSYINWYQQKPGKAPKLLIYATSNLQSGVPSRFSGSGSGTDFTLTISSLQPEDFATYYCQQFRKIPWTFGQGTKLEIKRTVAAPSVFIFPPSDEQLKSGTASVVCLLNNFYPREAKVQWKVDNALQSGNSQESVTEQDSKDSTYSLSSTLTLSKADYEKHKVYACEVTHQGLSSPVTKSFNRGEC
B8: AB200-R1H26-R2Vk43 (antibody)
heavy: QVQLVQSGAEVKKPGSSVKVSCKASGGSFSNYWMHWVRQAPGQGLEWMGATYRIHSDTFYNQKFKGRVTITADKSTSTAYMELSSLRSEDTAVYYCARGAIYHGYDVLDNWGQGTLVTVSSASTKGPSVFPLAPSSKSTSGGTAALGCLVKDYFPEPVTVSWNSGALTSGVHTFPAVLQSSGLYSLSSVVTVPSSSLGTQTYICNVNHKPSNTKVDKKVEPKSC
light: DIQMTQSPSSLSASVGDRVTITCRASQSISSYINWYQQKPGKAPKLLIYATSNIQSGVPSRFSGSGSGTDFTLTISSLQPEDFATYYCQQFRKIPWTFGQGTKLEIKRTVAAPSVFIFPPSDEQLKSGTASVVCLLNNFYPREAKVQWKVDNALQSGNSQESVTEQDSKDSTYSLSSTLTLSKADYEKHKVYACEVTHQGLSSPVTKSFNRGEC
B9: AB200-R1H26-R2Vk2 (antibody)
heavy: QVQLVQSGAEVKKPGSSVKVSCKASGGSFSNYWMHWVRQAPGQGLEWMGATYRIHSDTFYNQKFKGRVTITADKSTSTAYMELSSLRSEDTAVYYCARGAIYHGYDVLDNWGQGTLVTVSSASTKGPSVFPLAPSSKSTSGGTAALGCLVKDYFPEPVTVSWNSGALTSGVHTFPAVLQSSGLYSLSSVVTVPSSSLGTQTYICNVNHKPSNTKVDKKVEPKSC
light: DIQMTQSPSSLSASVGDRVTITCRASQSISSYINWYQQKPGKAPKLLIYAASSLQSGVPSRFSGSGSGTDFTLTISSLQPEDFATYYCQQFRKLPWSFGQGTKLEIKRTVAAPSVFIFPPSDEQLKSGTASVVCLLNNFYPREAKVQWKVDNALQSGNSQESVTEQDSKDSTYSLSSTLTLSKADYEKHKVYACEVTHQGLSSPVTKSFNRGEC
B10: AB200-R1H26-R2Vk42 (antibody)
heavy: QVQLVQSGAEVKKPGSSVKVSCKASGGSFSNYWMHWVRQAPGQGLEWMGATYRIHSDTFYNQKFKGRVTITADKSTSTAYMELSSLRSEDTAVYYCARGAIYHGYDVLDNWGQGTLVTVSSASTKGPSVFPLAPSSKSTSGGTAALGCLVKDYFPEPVTVSWNSGALTSGVHTFPAVLQSSGLYSLSSVVTVPSSSLGTQTYICNVNHKPSNTKVDKKVEPKSC
light: DIQMTQSPSSLSASVGDRVTITCRASQSISSYINWYQQKPGKAPKLLIYATSNIQSGVPSRFSGSGSGTDFTLTISSLQPEDFATYYCQQYRKIPWSFGQGTKLEIKRTVAAPSVFIFPPSDEQLKSGTASVVCLLNNFYPREAKVQWKVDNALQSGNSQESVTEQDSKDSTYSLSSTLTLSKADYEKHKVYACEVTHQGLSSPVTKSFNRGEC
B11: AB200-R1H26-R2Vk27 (antibody)
heavy: QVQLVQSGAEVKKPGSSVKVSCKASGGSFSNYWMHWVRQAPGQGLEWMGATYRIHSDTFYNQKFKGRVTITADKSTSTAYMELSSLRSEDTAVYYCARGAIYHGYDVLDNWGQGTLVTVSSASTKGPSVFPLAPSSKSTSGGTAALGCLVKDYFPEPVTVSWNSGALTSGVHTFPAVLQSSGLYSLSSVVTVPSSSLGTQTYICNVNHKPSNTKVDKKVEPKSC
light: DIQMTQSPSSLSASVGDRVTITCRASQSISSYLNWYQQKPGKAPKLLIYATSNIQSGVPSRFSGSGSGTDFTLTISSLQPEDFATYYCQQYRKIPWSFGQGTKLEIKRTVAAPSVFIFPPSDEQLKSGTASVVCLLNNFYPREAKVQWKVDNALQSGNSQESVTEQDSKDSTYSLSSTLTLSKADYEKHKVYACEVTHQGLSSPVTKSFNRGEC
B12: AB200-R1H26-R2Vk41 (antibody)
heavy: QVQLVQSGAEVKKPGSSVKVSCKASGGSFSNYWMHWVRQAPGQGLEWMGATYRIHSDTFYNQKFKGRVTITADKSTSTAYMELSSLRSEDTAVYYCARGAIYHGYDVLDNWGQGTLVTVSSASTKGPSVFPLAPSSKSTSGGTAALGCLVKDYFPEPVTVSWNSGALTSGVHTFPAVLQSSGLYSLSSVVTVPSSSLGTQTYICNVNHKPSNTKVDKKVEPKSC
light: DIQMTQSPSSLSASVGDRVTITCRASQSISSYINWYQQKPGKAPKLLIYATSNIQSGVPSRFSGSGSGTDFTLTISSLQPEDFATYYCQQFRRLPWTFGQGTKLEIKRTVAAPSVFIFPPSDEQLKSGTASVVCLLNNFYPREAKVQWKVDNALQSGNSQESVTEQDSKDSTYSLSSTLTLSKADYEKHKVYACEVTHQGLSSPVTKSFNRGEC

A short description of the data set: ThermoFluor thermostability (Tm). In kind it is physicochemical. Particulars: Light chain screening Round 2; Fab, paired with heavy chain AB200_R1_VH26. Background: In DSF a fluorescence change marks the thermal transition of the protein.
For B1, the Tm amounted to 82.729 °C.

Regarding B2, the Tm worked out at 78.634 °C. On to B3, for which the Tm is 79.308 °C.

As for B4, the Tm was found to be 79.374 °C.

In the case of B5, the Tm came to 82.966 °C. The same measure for B6: 78.907 °C; for B7: 83.791 °C; for B8: 82.001 °C. B9: the Tm was found to be 82.119 °C. As to B10, the Tm is 78.411 °C. On to B11, for which the Tm came to 79.104 °C. On to B12, for which the Tm was 83.256 °C.
